The source of these data is paper PMC4860839, “Structures of the APC–ARM domain in complexes with discrete Amer1/WTX fragments reveal that it uses a consensus mode to recognize its binding partners” (Cell Discovery, 2015).

B1: pBTM-APC–ARM (residues 308–789), two-hybrid bait [human] / Amer1-A4 (human, residues 337–455), two-hybrid prey [human] (parent complex)
chain 1: LGTKVEMVYSLLSMLGTHDKDDMSRTLLAMSSSQDSCISMRQSGCLPLLIQLLHGNDKDSVLLGNSRGSKEARARASAALHNIIHSQPDDKRGRREIRVLHLLEQIRAYCETCWEWQEAHEPGMDQDKNPMPAPVEHQICPAVCVLMKLSFDEEHRHAMNELGGLQAIAELLQVDCEMYGLTNDHYSITLRRYAGMALTNLTFGDVANKATLCSMKGCMRALVAQLKSESEDLQQVIASVLRNLSWRADVNSKKTLREVGSVKALMECALEVKKESTLKSVLSALWNLSAHCTENKADICAVDGALAFLVGTLTYRSQTNTLAIIESGGGILRNVSSLIATNEDHRQILRENNCLQTLLQHLKSHSLTIVSNACGTLWNLSARNPKDQEALWDMGAVSMLKNLIHSKHKMIAMGSAAALRNLMANRPAKYKDANIMSPGSSLPSLHVRKQKALEAELDAQHLSETFDNIDNLSPKASHRSKQ
chain 2: MDSMTDSMASGGQRANRDGTKRSSCLVTYQGGGEEMALPDDDDEEEEEEEEVELEEEEEEVKEEEEDDDLEYLWETAQMYPRPNMNLGYHPTTSPGHHGYMLLDPVRSYPGLAPGELLT
B2: pBTM-APC–ARM (residues 308–789), two-hybrid bait [human] / Amer1-A2 (murine, residues 388–551), two-hybrid prey [murine] (parent complex)
chain 1: B1 chain 1
chain 2: EEEEEEEEEEEEEEEEEEEEEELLEDEEEVKDGEENDDLEYLWASAQIYPRFNMNLGYHTAISPSHQGYMLLDPVQSYPNLGLGELLTPQSDQQESAPNSDEGYYDSTTPGFEDDSGEALGLAHRDCLPRDSYSGDALYEFYEPDDSLEHSPPGDDCLYDLRGR
B3: Amer1-A4 (human, residues 337–455), two-hybrid prey [human] / pBTM-APC–ARM (residues 308–789), two-hybrid bait [human] (parent complex)
chain 1: B1 chain 2
chain 2: B1 chain 1
B4: Amer1-A1 (human, residues 280–369), two-hybrid prey [human] / pBTM-APC–ARM (residues 308–789), two-hybrid bait [human] (parent complex)
chain 1: SLEEPHSPETGEKVVAGEVNPPNGPVGDPLSLLFGDVTSLKSFDSLTGCGDIIAEQDMDSMTDSMASGGQRANRDGTKRSSCLVTYQGGG
chain 2: B1 chain 1
B5: Amer1-A2 (human, residues 380–531), two-hybrid prey [human] / pBTM-APC–ARM (residues 308–789), two-hybrid bait [human] (parent complex)
chain 1: EEEEEEEEVELEEEEEEVKEEEEDDDLEYLWETAQMYPRPNMNLGYHPTTSPGHHGYMLLDPVRSYPGLAPGELLTPQSDQQESAPNSDEGYYDSTTPGFEDDSGEALGLVRRDCLPRDSYSGDALYEFYEPDDSLENSPPGDDCLYDLHGR
chain 2: B1 chain 1
B6: pBTM-APC–ARM (residues 308–789), two-hybrid bait [human] / Amer1-A1 (murine, residues 279–367), two-hybrid prey [murine] (parent complex)
chain 1: B1 chain 1
chain 2: SLEEPHTSETEGKVVAGEVNPPNGPVGDQLSLLFGDVTSLKSFDSLTGCGDIIAEQDMDSMTDSMASGGQRANRDGTKRSSCLVTYQGG

One assay covers variants of B1. Kind of assay: yeast two-hybrid assay (relative β-galactosidase reporter activity); parent: 100.
As to chain 1 K209E, the percent of parent was determined as 3.93%.

With chain 1 R242E, the percent of parent is 0.84%. On the same count and under the same terms, in the case of chain 1 N243K it was 0.28%; in that of chain 1 R420E, 132%; in that of chain 1 N200K, 0.28%. The same measure, in the same setting: for chain 1 M410K the value was 28.1%.

Variants of B2 are the subject of another assay. The assay is described as above.
As to chain 1 R242E, the percent of parent worked out at 0.06%. Take chain 1 N200K: the percent of parent was determined as 0.33%.

For the variant chain 1 N243K, the percent of parent was determined as 0.12%. For the variant chain 1 R420E, the percent of parent is 75.2%. The same measure, in the same setting: in the case of chain 1 K209E it was 0.27%; in that of chain 1 M410K, 87.8%.

Variants of B3 are the subject of another assay. Described as above.
Consider chain 1 E34K, for which the percent of parent worked out at 0.85%.

Variants of B4 are the subject of the next assay. Described as above.
With chain 1 D44K, the percent of parent was determined as 31.9%. Still for that read-out and setting: in the case of chain 1 T47R it was 65.2%; in that of chain 1 D51K, 0%.

Variants of B5 are the subject of another assay. Described as above.
On to chain 1 D119K, for which the percent of parent amounted to 0.28%. The same measure, in the same setting: in the case of chain 1 D124K it was 0.17%.

Variants of B6 are the subject of the next assay. The description is as above.
Take chain 1 N243K: the percent of parent is 0.38%. The same measure, in the same setting: for chain 1 M410K the value was 33.7%; for chain 1 N200K, 1.86%; for chain 1 R242E, 1.48%. For chain 1 R420E, the percent of parent stood at 41.3%. chain 1 K209E: the percent of parent turned out to be 0.09%.
